Tests used:
Lys245 = Lys245 (UniProt position 245, LFVNWKVSMFV); test: electrophysiology; conditions: wild-type channel, gating by intracellular pH (pHi); cited from earlier work
TASK-2 = biological target: T1, TASK-2 (Mus musculus, UniProt Q9JK62); test: whole-cell patch clamp, transfected HEK-293 cells; assay type: cell-based
T1 construct: gene Kcnk5; full-length TASK-2 plasmid transiently expressed in HEK-293 cells with separate GFP marker plasmid; homodimer
T1 sequence (Q9JK62 1-502): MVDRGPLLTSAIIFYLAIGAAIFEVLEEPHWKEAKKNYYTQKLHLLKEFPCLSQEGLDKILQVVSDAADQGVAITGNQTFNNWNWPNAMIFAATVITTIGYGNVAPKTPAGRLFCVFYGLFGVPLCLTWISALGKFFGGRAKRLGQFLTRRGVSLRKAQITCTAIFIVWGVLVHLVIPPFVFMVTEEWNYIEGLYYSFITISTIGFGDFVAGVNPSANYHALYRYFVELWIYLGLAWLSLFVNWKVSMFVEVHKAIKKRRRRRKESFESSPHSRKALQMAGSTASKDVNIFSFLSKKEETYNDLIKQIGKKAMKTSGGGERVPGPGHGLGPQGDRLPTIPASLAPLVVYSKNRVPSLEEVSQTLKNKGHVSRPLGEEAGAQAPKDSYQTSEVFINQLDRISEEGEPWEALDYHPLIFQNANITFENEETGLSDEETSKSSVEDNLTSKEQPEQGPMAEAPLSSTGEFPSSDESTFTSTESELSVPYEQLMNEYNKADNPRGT

IC50 (TASK-2)	Compound	pKa (Lys245)
	TASK-2 (K2P5.1, TWIK-related acid-sensitive K+ channel 2) (Mus musculus (inferred from GenBank AF319542; species not stated in the article))	~8.0
17 ± 5 µM	NCCC(Oc1ccc(C(F)(F)F)cc1)c1ccccc1 (racemic) [norfluoxetine]	
